Columns and labels:
Suc-βAla-Leu-Tyr-Leu-Dox = system: T1, Suc-βAla-Leu-Tyr-Leu-Dox
T1 sequence: XLYL

[1] = system: Mcc-Pro-Leu-Gly-Pro-D-Lys(DNP)

partially purified HeLa cell trouase (HeLa cell anion exchange fraction pool, F1), sequence (chain, as listed by the source): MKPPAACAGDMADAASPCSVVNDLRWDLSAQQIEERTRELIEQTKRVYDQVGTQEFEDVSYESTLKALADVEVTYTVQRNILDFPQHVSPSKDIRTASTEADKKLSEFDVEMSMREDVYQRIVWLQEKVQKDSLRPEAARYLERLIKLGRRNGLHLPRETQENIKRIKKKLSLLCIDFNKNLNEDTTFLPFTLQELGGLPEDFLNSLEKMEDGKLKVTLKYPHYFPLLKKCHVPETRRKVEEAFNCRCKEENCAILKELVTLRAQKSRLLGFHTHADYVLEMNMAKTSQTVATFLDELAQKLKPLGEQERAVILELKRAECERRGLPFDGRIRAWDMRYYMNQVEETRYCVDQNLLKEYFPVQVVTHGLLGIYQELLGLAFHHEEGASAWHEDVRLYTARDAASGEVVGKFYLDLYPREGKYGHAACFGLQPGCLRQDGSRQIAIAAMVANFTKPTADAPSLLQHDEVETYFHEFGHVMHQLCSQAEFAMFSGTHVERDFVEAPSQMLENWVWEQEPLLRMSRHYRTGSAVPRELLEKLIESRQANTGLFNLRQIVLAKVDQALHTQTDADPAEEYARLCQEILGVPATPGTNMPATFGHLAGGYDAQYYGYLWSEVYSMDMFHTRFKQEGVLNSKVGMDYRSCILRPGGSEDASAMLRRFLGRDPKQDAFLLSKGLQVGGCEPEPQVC

## purified Porcine Kidney CD10
Suc-βAla-Leu-Ala-Leu-Dox
  % hydrolysis/10 hr (% hydrolysis/10 hr): 10.9
  Fraction hydrolyzed relative to standard: 1
Suc-βAla-Leu-Tyr-Leu-Dox
  % hydrolysis/10 hr (% hydrolysis/10 hr): 0
  Fraction hydrolyzed relative to standard: 0

## partially purified HeLa cell trouase (HeLa cell anion exchange fraction pool, F1)
Suc-βAla-Ile-Ala-Leu-Dox
  rate of hydrolysis (Table 1, (F1)): 0.025
Suc-Ala-Leu-Ala-Leu-Dnr
  extent of cleavage (HPLC), fold of that of Suc-βAla-Leu-Ala-Leu-Dnr: only 0.6 fold that of the P2 β-alanine compound
Suc-Ile-NmAla-Leu-Dox
  rate of hydrolysis (Table 1, (F1)): 0
Suc-βAla-Leu-Ala-Leu-Dox
  rate of hydrolysis (Table 1, (F1)): 1
Suc-Ile-Ala-Leu-Dox
  rate of hydrolysis (Table 1, (F1)): 0
Suc-Leu-Ala-Gly-Dox
  rate of hydrolysis (Table 1, (F1)): 0.4
Suc-Met-Ala-Leu-Dox
  rate of hydrolysis (Table 1, (F1)): 0.49
Suc-Leu-NmAla-Leu-Dox
  rate of hydrolysis (Table 1, (F1)): 0
Suc-Leu-Ala-Leu-Dox
  rate of hydrolysis (Table 1, (F1)): 0.78
[1]
  rate of hydrolysis (Table 1, (F1)): 1.5

Reference: US20020142955
